Test results as given in patent EP4748860A1 (Kanglitai Biomedical (Qingdao) Co., Ltd., dated 2026).

The binders below were run against BSA (UniProt P02769 25-607) (assay: ELISA, antigen coated at 200 ng per well).
BSA, sequence (P02769 25-607 limits assumed): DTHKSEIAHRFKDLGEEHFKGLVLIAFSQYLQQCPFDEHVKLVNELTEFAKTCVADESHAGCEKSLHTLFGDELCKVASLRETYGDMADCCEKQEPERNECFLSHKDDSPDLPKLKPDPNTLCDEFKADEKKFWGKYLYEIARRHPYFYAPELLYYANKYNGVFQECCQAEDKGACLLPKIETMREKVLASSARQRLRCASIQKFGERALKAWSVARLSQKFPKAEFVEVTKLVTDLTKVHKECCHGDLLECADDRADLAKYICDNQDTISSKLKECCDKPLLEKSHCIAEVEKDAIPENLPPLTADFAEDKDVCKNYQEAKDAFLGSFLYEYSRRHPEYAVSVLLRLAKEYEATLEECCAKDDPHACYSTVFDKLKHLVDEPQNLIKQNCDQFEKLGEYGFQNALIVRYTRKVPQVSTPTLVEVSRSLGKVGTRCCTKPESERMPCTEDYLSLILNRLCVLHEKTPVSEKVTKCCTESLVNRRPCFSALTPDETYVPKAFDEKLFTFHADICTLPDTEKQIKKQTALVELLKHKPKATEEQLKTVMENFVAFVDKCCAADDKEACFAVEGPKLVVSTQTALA

| binding result | Binder |
| --- | --- |
| no binding (tested: 0.2 µg per well) | HER2-3-hFc (Fc fusion, VHH gene cloned into pABG1-Fc (human Fc fragment), expressed in FreeStyle 293-F cells, Protein A purified; also called HER2-3-Fc; not shown: human Fc fragment of vector pABG1-Fc) QVQLQESGGGLVQAGDSLRLSCAASGLTFSTVGMGWFRQVLGMEREPVAGISWTGNVIGYAESVTGRFTISRDSAKNTVYLQMNSLKPEDTAVYYCAARRRGMSSYDYWGQGTQVTVSS |
| no binding (tested: 0.2 µg per well) | HER2-10-hFc (Fc fusion, VHH gene cloned into pABG1-Fc (human Fc fragment), expressed in FreeStyle 293-F cells, Protein A purified; also called HER2-10-Fc; not shown: human Fc fragment of vector pABG1-Fc) QVQLQESGGGLVQPGGSLRLSCTAARNIFGRNVMGWFRQAPGKQREFVAHITGGSAVIYATSVKGRFTISRDNAKNTVYLQMNNLTLDDTAVYFCRAVNDDLWGQGTQVTVSS |

Continued, binder first:

| Binder | binding result |
| --- | --- |
| HER2-11-hFc (Fc fusion, VHH gene cloned into pABG1-Fc (human Fc fragment), expressed in FreeStyle 293-F cells, Protein A purified; also called HER2-11-Fc; not shown: human Fc fragment of vector pABG1-Fc) QVQLQESGGGLVQAGGSLRLSCAASGHTVSRNMMGWFRQAPGKEREFVSAIAWNGEDTYYAESVEGRFTISKDNVKNTIYLQMNSLKPEDTAVYYCAASLFRLWNSATAGNNRVYHYWGQGTQVTVSS | no binding (tested: 0.2 µg per well) |
| HER2-8-hFc (Fc fusion, VHH gene cloned into pABG1-Fc (human Fc fragment), expressed in FreeStyle 293-F cells, Protein A purified; also called HER2-8-Fc; not shown: human Fc fragment of vector pABG1-Fc) QVQLQESGGGLVQAGGSLRLSCAASGRTFSGAGVGWFRQDPEKEREFVAAIAWSGGSTRYADSVKGRFTISRDNTENTVFLQMNNLRPEDTAVYYCAATRRFYSGLTYTQRDVYDNWGQGTQVTVSS | no binding (tested: 0.2 µg per well) |
